According to US20260242839A1, “GLYCOSIDE PRODUCT BIOSYNTHESIS AND RECOVERY” (Manus Bio Inc., priority 2023, published 2026):

System: steviol glycoside
Assay: steviol glycoside bioconversion by E. coli expressing individual mutations of UGT SEQ ID NO: 14
Format: cell-based
Details: fold improvement of % conversion vs parent UGT SEQ ID NO: 14; stevia leaf extract and glucose fed; 37° C., 48 hr
Experimental: Fold improvement is with respect to % steviol glycoside conversion of the parent UGT enzyme of SEQ ID NO: 14. The UGT enzyme of SEQ ID NO: 15 has the following mutations from SEQ ID NO: 14: ins_A2_T3_RR, H59P, A238E, L417F. Stevia leaf extract and glucose were fed to the bioconversion strains. Bioconversion took place at 37° C. for 48 hr. Data were quantified by reverse phase LC DAD to quantify conversion of steviol glycosides.
Fold improvement (FI) is with respect to % steviol glycoside conversion.

B1: V26I: mutation to UGT enzyme of SEQ ID NO: 14 (protein)
chain: MATKNSSGMSLAERFWLTLSRSSLVIGRSCVEFEPETVPLLSTLRGKPITFLGLMPPLHEGRREDGEDATVRWLDAQPAKSVVYVALGSEVPLGVEKVHELALGLELAGTRFLWALRKPTGVSDADLLPAGFEERTRGRGVVATRWVPQMSILAHAAVGAFLTHCGWNSTIEGLMFGHPLIMLPITGDQGPNARLIEAKNAGLQVARNDGDGSFDREGVAAAIRAVAVEEESSKVFQAKAKKLQEIVADMACHERYIDGFIQQLRSYKDDSGYSSSYAAAAGMHVVICPWLAFGHLLPCLDLAQRLASRGHRVSFVSTPRNISRLPPVRPALAPLVAFVALPLPRVEGLPDGAESTNDVPHDRPDMVELHRRAFDGLAAPFSEFLGTACADWVIVDSFHHWAAAAALEHKVPCAMMLLGSAEMIASIADERLEHAETESPAAAGQGRPAAAPTFEVARMKLIR
Question: Which results are given for B1?
Answer: FI %Stevioside→rebE: 1.18; FI %rebA→rebD: 1.16

B2: I152L: mutation to UGT enzyme of SEQ ID NO: 14 (protein)
chain: MATKNSSGMSLAERFWLTLSRSSLVVGRSCVEFEPETVPLLSTLRGKPITFLGLMPPLHEGRREDGEDATVRWLDAQPAKSVVYVALGSEVPLGVEKVHELALGLELAGTRFLWALRKPTGVSDADLLPAGFEERTRGRGVVATRWVPQMSLLAHAAVGAFLTHCGWNSTIEGLMFGHPLIMLPITGDQGPNARLIEAKNAGLQVARNDGDGSFDREGVAAAIRAVAVEEESSKVFQAKAKKLQEIVADMACHERYIDGFIQQLRSYKDDSGYSSSYAAAAGMHVVICPWLAFGHLLPCLDLAQRLASRGHRVSFVSTPRNISRLPPVRPALAPLVAFVALPLPRVEGLPDGAESTNDVPHDRPDMVELHRRAFDGLAAPFSEFLGTACADWVIVDSFHHWAAAAALEHKVPCAMMLLGSAEMIASIADERLEHAETESPAAAGQGRPAAAPTFEVARMKLIR
Question: Which “FI %Stevioside→rebE” value does the source give for B2 here?
Answer: Its value is 1.09.

Question: And the “FI %rebA→rebD” value?
Answer: Its value is 1.15.

B3: H99T: mutation to UGT enzyme of SEQ ID NO: 14 (protein)
chain: MATKNSSGMSLAERFWLTLSRSSLVVGRSCVEFEPETVPLLSTLRGKPITFLGLMPPLHEGRREDGEDATVRWLDAQPAKSVVYVALGSEVPLGVEKVTELALGLELAGTRFLWALRKPTGVSDADLLPAGFEERTRGRGVVATRWVPQMSILAHAAVGAFLTHCGWNSTIEGLMFGHPLIMLPITGDQGPNARLIEAKNAGLQVARNDGDGSFDREGVAAAIRAVAVEEESSKVFQAKAKKLQEIVADMACHERYIDGFIQQLRSYKDDSGYSSSYAAAAGMHVVICPWLAFGHLLPCLDLAQRLASRGHRVSFVSTPRNISRLPPVRPALAPLVAFVALPLPRVEGLPDGAESTNDVPHDRPDMVELHRRAFDGLAAPFSEFLGTACADWVIVDSFHHWAAAAALEHKVPCAMMLLGSAEMIASIADERLEHAETESPAAAGQGRPAAAPTFEVARMKLIR
Question: Which “FI %Stevioside→rebE” value does the source give for B3 here?
Answer: Its value is 0.76.

Question: What about the “FI %rebA→rebD” value of the same molecule?
Answer: Its value is 1.04.

B4: R145S: mutation to UGT enzyme of SEQ ID NO: 14 (protein)
chain: MATKNSSGMSLAERFWLTLSRSSLVVGRSCVEFEPETVPLLSTLRGKPITFLGLMPPLHEGRREDGEDATVRWLDAQPAKSVVYVALGSEVPLGVEKVHELALGLELAGTRFLWALRKPTGVSDADLLPAGFEERTRGRGVVATSWVPQMSILAHAAVGAFLTHCGWNSTIEGLMFGHPLIMLPITGDQGPNARLIEAKNAGLQVARNDGDGSFDREGVAAAIRAVAVEEESSKVFQAKAKKLQEIVADMACHERYIDGFIQQLRSYKDDSGYSSSYAAAAGMHVVICPWLAFGHLLPCLDLAQRLASRGHRVSFVSTPRNISRLPPVRPALAPLVAFVALPLPRVEGLPDGAESTNDVPHDRPDMVELHRRAFDGLAAPFSEFLGTACADWVIVDSFHHWAAAAALEHKVPCAMMLLGSAEMIASIADERLEHAETESPAAAGQGRPAAAPTFEVARMKLIR
Question: How did the “FI %Stevioside→rebE” value turn out when B4 was run?
Answer: Its value is 1.06.

Question: And the “FI %rebA→rebD” value?
Answer: The value was 1.14.

B5: V31P: mutation to UGT enzyme of SEQ ID NO: 14 (protein)
chain: MATKNSSGMSLAERFWLTLSRSSLVVGRSCPEFEPETVPLLSTLRGKPITFLGLMPPLHEGRREDGEDATVRWLDAQPAKSVVYVALGSEVPLGVEKVHELALGLELAGTRFLWALRKPTGVSDADLLPAGFEERTRGRGVVATRWVPQMSILAHAAVGAFLTHCGWNSTIEGLMFGHPLIMLPITGDQGPNARLIEAKNAGLQVARNDGDGSFDREGVAAAIRAVAVEEESSKVFQAKAKKLQEIVADMACHERYIDGFIQQLRSYKDDSGYSSSYAAAAGMHVVICPWLAFGHLLPCLDLAQRLASRGHRVSFVSTPRNISRLPPVRPALAPLVAFVALPLPRVEGLPDGAESTNDVPHDRPDMVELHRRAFDGLAAPFSEFLGTACADWVIVDSFHHWAAAAALEHKVPCAMMLLGSAEMIASIADERLEHAETESPAAAGQGRPAAAPTFEVARMKLIR
Question: Which results are given for B5?
Answer: FI %Stevioside→rebE: 1.22; FI %rebA→rebD: 1.08

B6: G94R: mutation to UGT enzyme of SEQ ID NO: 14 (protein)
chain: MATKNSSGMSLAERFWLTLSRSSLVVGRSCVEFEPETVPLLSTLRGKPITFLGLMPPLHEGRREDGEDATVRWLDAQPAKSVVYVALGSEVPLRVEKVHELALGLELAGTRFLWALRKPTGVSDADLLPAGFEERTRGRGVVATRWVPQMSILAHAAVGAFLTHCGWNSTIEGLMFGHPLIMLPITGDQGPNARLIEAKNAGLQVARNDGDGSFDREGVAAAIRAVAVEEESSKVFQAKAKKLQEIVADMACHERYIDGFIQQLRSYKDDSGYSSSYAAAAGMHVVICPWLAFGHLLPCLDLAQRLASRGHRVSFVSTPRNISRLPPVRPALAPLVAFVALPLPRVEGLPDGAESTNDVPHDRPDMVELHRRAFDGLAAPFSEFLGTACADWVIVDSFHHWAAAAALEHKVPCAMMLLGSAEMIASIADERLEHAETESPAAAGQGRPAAAPTFEVARMKLIR
Question: Which “FI %Stevioside→rebE” value does the source give for B6 here?
Answer: The value was 1.12.

Question: What about the “FI %rebA→rebD” value of the same molecule?
Answer: The value was 1.13.

B7: T43D: mutation to UGT enzyme of SEQ ID NO: 14 (protein)
chain: MATKNSSGMSLAERFWLTLSRSSLVVGRSCVEFEPETVPLLSDLRGKPITFLGLMPPLHEGRREDGEDATVRWLDAQPAKSVVYVALGSEVPLGVEKVHELALGLELAGTRFLWALRKPTGVSDADLLPAGFEERTRGRGVVATRWVPQMSILAHAAVGAFLTHCGWNSTIEGLMFGHPLIMLPITGDQGPNARLIEAKNAGLQVARNDGDGSFDREGVAAAIRAVAVEEESSKVFQAKAKKLQEIVADMACHERYIDGFIQQLRSYKDDSGYSSSYAAAAGMHVVICPWLAFGHLLPCLDLAQRLASRGHRVSFVSTPRNISRLPPVRPALAPLVAFVALPLPRVEGLPDGAESTNDVPHDRPDMVELHRRAFDGLAAPFSEFLGTACADWVIVDSFHHWAAAAALEHKVPCAMMLLGSAEMIASIADERLEHAETESPAAAGQGRPAAAPTFEVARMKLIR
Question: Which results are given for B7?
Answer: FI %Stevioside→rebE: 1.29; FI %rebA→rebD: 1.08

B8: D269R: mutation to UGT enzyme of SEQ ID NO: 14 (protein)
chain: MATKNSSGMSLAERFWLTLSRSSLVVGRSCVEFEPETVPLLSTLRGKPITFLGLMPPLHEGRREDGEDATVRWLDAQPAKSVVYVALGSEVPLGVEKVHELALGLELAGTRFLWALRKPTGVSDADLLPAGFEERTRGRGVVATRWVPQMSILAHAAVGAFLTHCGWNSTIEGLMFGHPLIMLPITGDQGPNARLIEAKNAGLQVARNDGDGSFDREGVAAAIRAVAVEEESSKVFQAKAKKLQEIVADMACHERYIDGFIQQLRSYKRDSGYSSSYAAAAGMHVVICPWLAFGHLLPCLDLAQRLASRGHRVSFVSTPRNISRLPPVRPALAPLVAFVALPLPRVEGLPDGAESTNDVPHDRPDMVELHRRAFDGLAAPFSEFLGTACADWVIVDSFHHWAAAAALEHKVPCAMMLLGSAEMIASIADERLEHAETESPAAAGQGRPAAAPTFEVARMKLIR
Question: Which results are given for B8?
Answer: FI %Stevioside→rebE: 2.0; FI %rebA→rebD: 1.7

B9: L11I: mutation to UGT enzyme of SEQ ID NO: 14 (protein)
chain: MATKNSSGMSIAERFWLTLSRSSLVVGRSCVEFEPETVPLLSTLRGKPITFLGLMPPLHEGRREDGEDATVRWLDAQPAKSVVYVALGSEVPLGVEKVHELALGLELAGTRFLWALRKPTGVSDADLLPAGFEERTRGRGVVATRWVPQMSILAHAAVGAFLTHCGWNSTIEGLMFGHPLIMLPITGDQGPNARLIEAKNAGLQVARNDGDGSFDREGVAAAIRAVAVEEESSKVFQAKAKKLQEIVADMACHERYIDGFIQQLRSYKDDSGYSSSYAAAAGMHVVICPWLAFGHLLPCLDLAQRLASRGHRVSFVSTPRNISRLPPVRPALAPLVAFVALPLPRVEGLPDGAESTNDVPHDRPDMVELHRRAFDGLAAPFSEFLGTACADWVIVDSFHHWAAAAALEHKVPCAMMLLGSAEMIASIADERLEHAETESPAAAGQGRPAAAPTFEVARMKLIR
Question: How did the “FI %Stevioside→rebE” value turn out when B9 was run?
Answer: Its value is 1.39.

Question: And the “FI %rebA→rebD” value?
Answer: The value was 1.16.

B10: C299A: mutation to UGT enzyme of SEQ ID NO: 14 (protein)
chain: MATKNSSGMSLAERFWLTLSRSSLVVGRSCVEFEPETVPLLSTLRGKPITFLGLMPPLHEGRREDGEDATVRWLDAQPAKSVVYVALGSEVPLGVEKVHELALGLELAGTRFLWALRKPTGVSDADLLPAGFEERTRGRGVVATRWVPQMSILAHAAVGAFLTHCGWNSTIEGLMFGHPLIMLPITGDQGPNARLIEAKNAGLQVARNDGDGSFDREGVAAAIRAVAVEEESSKVFQAKAKKLQEIVADMACHERYIDGFIQQLRSYKDDSGYSSSYAAAAGMHVVICPWLAFGHLLPALDLAQRLASRGHRVSFVSTPRNISRLPPVRPALAPLVAFVALPLPRVEGLPDGAESTNDVPHDRPDMVELHRRAFDGLAAPFSEFLGTACADWVIVDSFHHWAAAAALEHKVPCAMMLLGSAEMIASIADERLEHAETESPAAAGQGRPAAAPTFEVARMKLIR
Question: For B10, which “FI %Stevioside→rebE” value is on record?
Answer: The value was 0.76.

Question: And the “FI %rebA→rebD” value?
Answer: Its value is 1.03.
